Measurements reported in patent US7585498B2, “Regulation of adenovirus DNA packaging by IPTG” (The Research Foundation of State University of New York, priority 2001, dated 2009).

Key:
N52.E6 cells = experiment: Generation of virus stocks with IPTG in the media; assay type: cell-based, human; conditions: 2 mM IPTG in the media
Source text: Towards the development of an all-inclusive helper virus whose packaging is specifically and selectively repressed while providing early and late gene products for complementation in trans of a gutted virus, the following recombinant Ad was constructed (FIG. 14). Ad-AV-VII(lac)^2-LacWT contains the AV-VII(lac)^2 minimal domain in place of the WT packaging domain as well as a CMV-M45-LacWT expression cassette. Ad-AV-VII^2-LacWT serves as a control, and contains the AV-VII^2 minimal domain without Lac binding sites, as well as the CMV-M45-LacWT expression cassette. These viruses were plaque purified and grown in N52.E6 cells. N52.E6 cells are a human amniocyte cell line transformed with Ad E1A and E1B sequences (Schiedner, Hertel et al. 2000). These cells contain only Ad nts 505-3522 and share no homologous sequence with the viral DNA constructs, thus eliminating the possibility of the generation of replication competent adenovirus (RCA) by recombination with Ad sequences present in other E1-containing cell lines. To generate stocks of these viruses, they were grown in N52.E6 cells with IPTG in the media at a concentration of 2 mM. IPTG is required in the media, as these viruses express Lac repressor protein that is able to bind to lac binding sites within the packaging domain and suppress packaging.

[1] = tested on: AV-VII(lac)^2 dimer probe; experiment: Gel mobility shift assay, AV-VII(lac)^2 dimer probe; conditions: whole cell extract of transfected 293 cells
[2] = tested on: lac binding site monomer probe; experiment: Gel mobility shift assay, lac binding site monomer probe; conditions: whole cell extract of transfected 293 cells

Q: Which “growth of Lac repressor expressing viruses” value (N52.E6 cells) does the source give for CC(C)S[C@@H]1O[C@H](CO)[C@H](O)[C@H](O)[C@H]1O [IPTG, isopropyl-β-D-thiogalactopyranoside] here?
A: allowed for growth of these viruses

B1: LacWT: M45 epitope-tagged wild type E. coli Lac repressor protein in whole cell extract of transfected 293 cells (protein)
chain: MKPVTLYDVAEYAGVSYQTVSRVVNQASHVSAKTREKVEAAMAELNYIPNRVAQQLAGKQSLLIGVATSSLALHAPSQIVAAIKSRADQLGASVVVSMVERSGVEACKAAVHNLLAQRVSGLIINYPLDDQDAIAVEAACTNVPALFLDVSDQTPINSIIFSHEDGTRLGVEHLVALGHQQIALLAGPLSSVSARLRLAGWHKYLTRNQIQPIAEREGDWSAMSGFQQTMQMLNEGIVPTAMLVANDQMALGAMRAITESGLRVGADISVVGYDDTEDSSCYIPPLTTIKQDFRLLGQTSVDRLLQLSQGQAVKGNQLLPVSLVKRKTTLAPNTQTASPRALADSLMQLARQVSRLESGQ
modifications: left off: small tags and cut ends
Q: With B1 as the molecule, how does the “AV-VII(lac) dimer binding activity” value [1] read?
A: detected

Q: And the “Lac site monomer binding activity” value [2]?
A: detected
